No end group written: not given here.
Key:
[1] = biological target: CsgA, major curlin subunit, recombinant with C-terminal His6-tag (Escherichia coli) (UniProt P28307); experiment: SEC-MALS
[2] = biological target: the molecule itself; experiment: ThT fibrillation kinetics
crystal structure = biological target: the molecule itself; experiment: crystal structure
[3] = biological target: the molecule itself; experiment: ThT fibrillation kinetics; remark: listed apart in the source

Sequence of CsgA, major curlin subunit, recombinant with C-terminal His6-tag (P28307 21-151): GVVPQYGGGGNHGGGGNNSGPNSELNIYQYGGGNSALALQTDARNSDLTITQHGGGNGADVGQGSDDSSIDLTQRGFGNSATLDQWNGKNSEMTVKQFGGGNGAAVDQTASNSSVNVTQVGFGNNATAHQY

Molecule	binding result [2]	binding result (crystal structure)	other results
CsgA, major curlin subunit, recombinant with C-terminal His6-tag (from UniProt P28307 21-151) (natural protein)	–	–	stoichiometry N [1]: 6
Ac-VTQVGF-NH2 [CsgA segment 137VTQVGF142 (R5 repeat), capped termini]	binds	–	–
H-TASNSS-OH [CsgA segment 129TASNSS134 (R4-R5 loop), unmodified termini]	–	binds	–
Ac-LNIYQY-NH2 [CsgA segment 45LNIYQY50 (R1 repeat), capped termini]	binds	–	–
VTQVGF-NH2 [CsgA segment 137VTQVGF142 (R5 repeat), capped at the C-terminus]	–	–	binding result [3]: binds
H-IYQYGG-OH [CsgA segment 47IYQYGG52 (R1 repeat), unmodified termini]	–	binds	–
H-LNIYQY-OH [CsgA segment 45LNIYQY50 (R1 repeat), unmodified termini]	–	binds	–
H-VTQVGF-OH [CsgA segment 137VTQVGF142 (R5 repeat), unmodified termini]	–	binds	–
Ac-IYQYGG-NH2 [CsgA segment 47IYQYGG52 (R1 repeat), capped termini]	binds	–	–
LNIYQY-NH2 [CsgA segment 45LNIYQY50 (R1 repeat), capped at the C-terminus]	–	–	binding result [3]: binds
